We go through 1 molecule from patent US20090203602A1 (AMERICAN TYPE CULTURE COLLECTION, published 2009).

Targets include MAPK1 (h) (human, UniProt P28482); PKBβ (h) (human, UniProt P31751 1-481, limits assumed); GSK3β (h) (human, UniProt P49841 1-420, limits assumed); MAPK2 (h) (human, UniProt P28482 1-360, limits assumed); IR (h) (human, UniProt P06213 1005-1310, limits assumed); PKA(h) (human, UniProt P17612 1-351); PKCβII (h) (human, UniProt P05771-2 1-673).
Common to all, as to assay: cell-based or functional assay
The target in experiment [1] is RPS6KB1 (p70S6K) Ribosomal protein S6 kinase, 70 kDa, polypeptide 1 (human, UniProt P23443 1-421, limits assumed).
Chain of RPS6KB1 (p70S6K) Ribosomal protein S6 kinase, 70 kDa, polypeptide 1 (P23443 1-421 limits assumed): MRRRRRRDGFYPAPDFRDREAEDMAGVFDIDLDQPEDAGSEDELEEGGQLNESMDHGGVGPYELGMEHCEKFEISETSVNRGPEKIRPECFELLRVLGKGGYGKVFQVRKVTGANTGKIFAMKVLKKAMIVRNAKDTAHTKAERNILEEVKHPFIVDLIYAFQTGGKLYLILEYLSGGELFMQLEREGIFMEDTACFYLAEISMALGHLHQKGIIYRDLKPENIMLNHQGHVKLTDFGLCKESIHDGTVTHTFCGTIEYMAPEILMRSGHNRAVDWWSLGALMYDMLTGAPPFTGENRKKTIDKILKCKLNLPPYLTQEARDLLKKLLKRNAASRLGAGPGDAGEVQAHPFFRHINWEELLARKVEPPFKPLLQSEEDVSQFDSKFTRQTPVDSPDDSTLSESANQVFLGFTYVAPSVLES
Experiment [2] has as its target T1, SGK (SGK1) Serum/glucocorticoid regulated kinase (human, UniProt O00141 60-431, limits assumed).
T1 sequence (looked up): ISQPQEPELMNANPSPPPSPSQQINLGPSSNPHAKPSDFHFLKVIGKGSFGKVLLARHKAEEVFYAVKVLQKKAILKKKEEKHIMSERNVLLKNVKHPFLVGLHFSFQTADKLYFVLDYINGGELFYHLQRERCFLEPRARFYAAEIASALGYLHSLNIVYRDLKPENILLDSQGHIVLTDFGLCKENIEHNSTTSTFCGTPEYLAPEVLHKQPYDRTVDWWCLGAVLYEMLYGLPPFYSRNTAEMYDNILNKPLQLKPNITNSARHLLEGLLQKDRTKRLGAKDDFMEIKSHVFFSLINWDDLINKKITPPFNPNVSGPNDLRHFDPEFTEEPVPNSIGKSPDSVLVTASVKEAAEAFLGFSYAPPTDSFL

For another experiment, the target named is T2, IKKβ(h) (human, UniProt O14920 1-756, limits assumed).
T2 sequence (looked up): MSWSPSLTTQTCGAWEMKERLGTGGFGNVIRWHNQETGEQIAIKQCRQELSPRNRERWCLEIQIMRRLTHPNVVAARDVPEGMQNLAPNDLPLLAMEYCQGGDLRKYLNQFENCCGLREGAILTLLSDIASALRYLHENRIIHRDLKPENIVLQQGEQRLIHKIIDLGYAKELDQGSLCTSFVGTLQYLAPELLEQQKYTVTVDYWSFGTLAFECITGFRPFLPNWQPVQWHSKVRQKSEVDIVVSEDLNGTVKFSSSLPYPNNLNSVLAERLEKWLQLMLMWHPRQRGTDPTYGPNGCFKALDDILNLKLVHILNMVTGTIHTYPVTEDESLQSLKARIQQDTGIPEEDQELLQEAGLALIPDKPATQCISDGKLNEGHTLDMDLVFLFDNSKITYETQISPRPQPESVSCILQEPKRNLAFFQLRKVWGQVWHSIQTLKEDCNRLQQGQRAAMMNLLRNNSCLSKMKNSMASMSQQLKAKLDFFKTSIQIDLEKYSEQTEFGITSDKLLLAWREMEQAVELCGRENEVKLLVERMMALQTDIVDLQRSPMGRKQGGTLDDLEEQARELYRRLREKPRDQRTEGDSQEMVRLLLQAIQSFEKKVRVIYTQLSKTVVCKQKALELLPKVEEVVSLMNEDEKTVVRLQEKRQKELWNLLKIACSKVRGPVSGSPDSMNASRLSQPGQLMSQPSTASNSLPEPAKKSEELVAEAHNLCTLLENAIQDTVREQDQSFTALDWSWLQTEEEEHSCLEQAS

The target in another experiment is T3, PKCζ (h) (human, UniProt Q05513 1-592, limits assumed).
T3 sequence (looked up): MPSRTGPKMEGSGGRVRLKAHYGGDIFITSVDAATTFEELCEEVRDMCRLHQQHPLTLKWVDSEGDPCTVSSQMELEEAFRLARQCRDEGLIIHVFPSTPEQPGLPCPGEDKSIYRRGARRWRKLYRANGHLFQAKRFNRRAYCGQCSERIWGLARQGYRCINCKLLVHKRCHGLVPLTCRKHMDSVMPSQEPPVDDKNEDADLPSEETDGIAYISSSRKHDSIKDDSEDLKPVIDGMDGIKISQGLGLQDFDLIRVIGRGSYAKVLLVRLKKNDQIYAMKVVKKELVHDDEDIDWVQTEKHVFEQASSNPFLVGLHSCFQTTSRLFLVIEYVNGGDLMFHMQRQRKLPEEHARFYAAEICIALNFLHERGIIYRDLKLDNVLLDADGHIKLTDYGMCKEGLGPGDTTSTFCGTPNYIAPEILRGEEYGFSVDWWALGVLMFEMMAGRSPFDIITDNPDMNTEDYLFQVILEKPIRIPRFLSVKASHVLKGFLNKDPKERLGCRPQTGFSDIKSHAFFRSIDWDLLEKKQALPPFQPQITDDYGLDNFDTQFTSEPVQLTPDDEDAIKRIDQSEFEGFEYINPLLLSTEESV

A further experiment has as its target T4, PDK1 (h) (human, UniProt O15530 1-556, limits assumed).
T4 sequence (looked up): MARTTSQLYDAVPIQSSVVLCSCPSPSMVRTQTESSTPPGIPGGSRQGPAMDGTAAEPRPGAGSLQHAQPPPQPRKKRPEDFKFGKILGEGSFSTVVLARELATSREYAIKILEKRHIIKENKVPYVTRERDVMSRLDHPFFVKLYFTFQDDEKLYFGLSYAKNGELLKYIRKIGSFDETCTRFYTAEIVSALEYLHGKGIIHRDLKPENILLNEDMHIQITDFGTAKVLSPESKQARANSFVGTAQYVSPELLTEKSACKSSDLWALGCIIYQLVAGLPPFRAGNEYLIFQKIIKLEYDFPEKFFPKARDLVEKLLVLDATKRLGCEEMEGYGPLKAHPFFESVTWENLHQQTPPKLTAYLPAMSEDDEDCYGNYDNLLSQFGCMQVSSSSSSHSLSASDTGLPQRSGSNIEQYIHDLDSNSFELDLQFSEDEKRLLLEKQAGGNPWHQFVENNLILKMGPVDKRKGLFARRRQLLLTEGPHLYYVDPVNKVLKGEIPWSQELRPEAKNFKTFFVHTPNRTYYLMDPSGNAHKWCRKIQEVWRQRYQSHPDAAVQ

Chain of PKCβII (h) (P05771 other isoform, or with tags, fused parts or gaps limits assumed): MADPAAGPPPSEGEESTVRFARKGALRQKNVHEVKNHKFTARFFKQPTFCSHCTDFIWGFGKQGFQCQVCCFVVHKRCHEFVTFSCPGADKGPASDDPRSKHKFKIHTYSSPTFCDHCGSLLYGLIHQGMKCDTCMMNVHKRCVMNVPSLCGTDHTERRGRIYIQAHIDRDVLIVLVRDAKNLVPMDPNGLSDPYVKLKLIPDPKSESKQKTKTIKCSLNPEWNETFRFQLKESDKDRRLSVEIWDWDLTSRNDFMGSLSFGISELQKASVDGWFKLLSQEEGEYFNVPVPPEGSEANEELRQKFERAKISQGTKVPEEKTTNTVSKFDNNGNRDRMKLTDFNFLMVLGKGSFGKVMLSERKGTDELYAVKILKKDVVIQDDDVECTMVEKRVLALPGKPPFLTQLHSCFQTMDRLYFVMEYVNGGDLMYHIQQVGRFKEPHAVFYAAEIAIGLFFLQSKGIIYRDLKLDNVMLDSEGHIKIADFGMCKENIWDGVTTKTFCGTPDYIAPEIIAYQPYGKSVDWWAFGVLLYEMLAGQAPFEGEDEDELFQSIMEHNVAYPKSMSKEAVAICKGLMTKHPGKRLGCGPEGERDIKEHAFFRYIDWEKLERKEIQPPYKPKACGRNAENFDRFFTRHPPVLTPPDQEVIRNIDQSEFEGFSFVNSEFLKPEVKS
Chain of MAPK2 (h) (P28482 whole entry): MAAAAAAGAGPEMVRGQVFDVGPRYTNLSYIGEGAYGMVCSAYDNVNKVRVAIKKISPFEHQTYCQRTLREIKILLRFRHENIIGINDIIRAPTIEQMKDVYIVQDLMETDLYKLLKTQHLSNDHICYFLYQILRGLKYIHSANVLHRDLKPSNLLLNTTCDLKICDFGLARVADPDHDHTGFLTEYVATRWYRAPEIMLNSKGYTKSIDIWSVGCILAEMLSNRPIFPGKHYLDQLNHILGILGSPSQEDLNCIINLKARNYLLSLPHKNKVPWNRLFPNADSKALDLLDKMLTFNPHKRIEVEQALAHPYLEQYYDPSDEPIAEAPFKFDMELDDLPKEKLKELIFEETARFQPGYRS
Chain of PKBβ (h) (P31751 whole entry): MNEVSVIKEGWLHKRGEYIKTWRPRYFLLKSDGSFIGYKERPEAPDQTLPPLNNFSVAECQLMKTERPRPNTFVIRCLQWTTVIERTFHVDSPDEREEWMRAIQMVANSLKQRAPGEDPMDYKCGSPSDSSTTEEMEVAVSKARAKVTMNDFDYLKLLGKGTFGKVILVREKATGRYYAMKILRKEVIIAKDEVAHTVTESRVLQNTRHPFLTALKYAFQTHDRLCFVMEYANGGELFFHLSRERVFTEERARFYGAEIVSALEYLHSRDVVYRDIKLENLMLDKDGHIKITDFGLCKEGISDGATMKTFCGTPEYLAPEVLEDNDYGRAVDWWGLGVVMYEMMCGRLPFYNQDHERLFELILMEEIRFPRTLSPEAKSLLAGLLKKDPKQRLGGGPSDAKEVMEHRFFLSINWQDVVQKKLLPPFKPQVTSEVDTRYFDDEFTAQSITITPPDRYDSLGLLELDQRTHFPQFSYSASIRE
Chain of GSK3β (h) (P49841 whole entry): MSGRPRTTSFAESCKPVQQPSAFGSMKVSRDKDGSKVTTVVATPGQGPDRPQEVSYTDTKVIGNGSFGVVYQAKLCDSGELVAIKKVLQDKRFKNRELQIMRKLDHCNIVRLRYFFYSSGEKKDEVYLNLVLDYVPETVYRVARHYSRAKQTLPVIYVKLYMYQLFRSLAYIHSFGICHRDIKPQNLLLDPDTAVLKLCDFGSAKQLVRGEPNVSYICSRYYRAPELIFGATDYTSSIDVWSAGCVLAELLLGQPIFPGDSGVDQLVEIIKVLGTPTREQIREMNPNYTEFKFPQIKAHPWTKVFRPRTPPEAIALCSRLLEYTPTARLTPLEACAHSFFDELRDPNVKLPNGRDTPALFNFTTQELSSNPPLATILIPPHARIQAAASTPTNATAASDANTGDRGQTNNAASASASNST
Chain of IR (h) (P06213 1005-1310 limits assumed): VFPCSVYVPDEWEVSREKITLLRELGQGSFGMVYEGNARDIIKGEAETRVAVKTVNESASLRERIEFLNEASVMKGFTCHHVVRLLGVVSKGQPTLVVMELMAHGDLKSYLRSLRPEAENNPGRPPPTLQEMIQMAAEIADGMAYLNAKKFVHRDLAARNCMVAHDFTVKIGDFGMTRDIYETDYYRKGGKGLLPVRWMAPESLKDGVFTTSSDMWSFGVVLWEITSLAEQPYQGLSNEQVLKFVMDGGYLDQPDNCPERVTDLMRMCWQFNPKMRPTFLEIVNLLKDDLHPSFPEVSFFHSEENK
Chain of MAPK1 (h) (P28482 2-360): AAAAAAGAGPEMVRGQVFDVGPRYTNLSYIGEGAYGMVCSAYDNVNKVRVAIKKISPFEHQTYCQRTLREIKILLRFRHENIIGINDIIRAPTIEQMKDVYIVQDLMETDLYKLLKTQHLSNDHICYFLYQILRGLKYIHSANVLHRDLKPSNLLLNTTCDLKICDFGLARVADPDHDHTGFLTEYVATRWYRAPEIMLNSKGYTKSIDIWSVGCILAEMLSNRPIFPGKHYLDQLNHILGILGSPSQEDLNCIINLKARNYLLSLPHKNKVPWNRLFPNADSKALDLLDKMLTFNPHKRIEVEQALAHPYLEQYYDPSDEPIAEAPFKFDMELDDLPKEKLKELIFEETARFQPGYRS

Consider SGRPPMIVWFNRPFLIAVSHTHGQTILFMAKVINPVGA [D3 peptide], for which the “D3 at 0.1 µM % activity” value with MAPK1 (h) is 86 % activity; with PKBβ (h), 63 % activity; with GSK3β (h), 101 % activity; in [1] it was 73 % activity; with MAPK2 (h) it was 96 % activity; in [2], 74 % activity. Besides, the “D3 at 0.1 µM % activity” value in the experiment with IKKβ(h) came out at 103 % activity; with PKCζ (h), 95 % activity; with IR (h), 96 % activity; with PDK1 (h), 98 % activity; with PKA(h) it was 115 % activity; with PKCβII (h) it was 101 % activity. In addition, the “D3 at 1 µm % activity” value came to 92 % activity with MAPK1 (h); 12 % activity with PKBβ (h); 100 % activity in the experiment with GSK3β (h); 22 % activity in experiment [1]; 96 % activity with MAPK2 (h); 5 % activity in experiment [2]. Also, the “D3 at 1 µm % activity” value came to 71 % activity in the experiment with IKKβ(h); 42 % activity with PKCζ (h); 103 % activity with IR (h); 108 % activity with PDK1 (h); 105 % activity with PKA(h); 103 % activity with PKCβII (h).
